Measurements taken from patent US20140377287A1 (published 2014).

T1: human Trop-2 (human, UniProt P09758 27-323)
T1 construct: whole, on cells; Type-I transmembrane glycoprotein; also called EGP-1; epithelial glycoprotein-1
T1 sequence (looked up): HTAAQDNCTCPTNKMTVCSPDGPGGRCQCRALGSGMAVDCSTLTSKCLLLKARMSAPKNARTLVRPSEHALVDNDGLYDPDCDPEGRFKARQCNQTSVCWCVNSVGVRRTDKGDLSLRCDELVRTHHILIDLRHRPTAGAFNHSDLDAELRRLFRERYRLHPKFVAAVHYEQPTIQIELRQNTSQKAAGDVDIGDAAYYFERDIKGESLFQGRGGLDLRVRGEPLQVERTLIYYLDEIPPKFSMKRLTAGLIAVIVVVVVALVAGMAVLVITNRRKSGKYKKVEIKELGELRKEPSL


What was measured:
[1] = biological target: T1, human Trop-2; test: cell binding assay on Trop-2-expressing cells (cell line not stated)
[2] = biological target: T1, human Trop-2; test: cell binding on NCI-N87 cells, anti-mouse-HRP secondary, luminescence, 0.03 to 66 nM, 4 C

Kd [1]	Kd [2]	Molecule
1.2 nM	–	hRS7-CL2-SN-38 (antibody)
1.2 nM	–	hRS7-CL2A-SN-38 (antibody)
–	0.57 nM	murine RS7 (antibody, V domains shown) VH: VKLQESGPELKKPGETVKISCKASGYTFTNYGMNWVKQAPGKGLKWMGWINTYTGEPTYTDDFKGRFAFSLETSATTAYLQINNLKSEDMATYFCARGGFGSSYWYFDVWGQGTTVTVSS VL: DIQLTQSHKFMSTSVGDRVSITCKASQDVSIAVAWYQQKPGQSPKLLIYSASYRYTGVPDRFTGSGSGTDFTFTISSVQAEDLAVYYCQQHYITPLTFGAGTKLELK
